From article PMC5640987 (Nature, 2017)

Columns and labels:
Tor1 = Tor1 (budding yeast (endogenous), UniProt P35169 1-2470); assay: cryo-EM structure
cryo-EM structure = target: the molecule itself; assay: cryo-EM structure

Chain of Tor1 (P35169 whole entry): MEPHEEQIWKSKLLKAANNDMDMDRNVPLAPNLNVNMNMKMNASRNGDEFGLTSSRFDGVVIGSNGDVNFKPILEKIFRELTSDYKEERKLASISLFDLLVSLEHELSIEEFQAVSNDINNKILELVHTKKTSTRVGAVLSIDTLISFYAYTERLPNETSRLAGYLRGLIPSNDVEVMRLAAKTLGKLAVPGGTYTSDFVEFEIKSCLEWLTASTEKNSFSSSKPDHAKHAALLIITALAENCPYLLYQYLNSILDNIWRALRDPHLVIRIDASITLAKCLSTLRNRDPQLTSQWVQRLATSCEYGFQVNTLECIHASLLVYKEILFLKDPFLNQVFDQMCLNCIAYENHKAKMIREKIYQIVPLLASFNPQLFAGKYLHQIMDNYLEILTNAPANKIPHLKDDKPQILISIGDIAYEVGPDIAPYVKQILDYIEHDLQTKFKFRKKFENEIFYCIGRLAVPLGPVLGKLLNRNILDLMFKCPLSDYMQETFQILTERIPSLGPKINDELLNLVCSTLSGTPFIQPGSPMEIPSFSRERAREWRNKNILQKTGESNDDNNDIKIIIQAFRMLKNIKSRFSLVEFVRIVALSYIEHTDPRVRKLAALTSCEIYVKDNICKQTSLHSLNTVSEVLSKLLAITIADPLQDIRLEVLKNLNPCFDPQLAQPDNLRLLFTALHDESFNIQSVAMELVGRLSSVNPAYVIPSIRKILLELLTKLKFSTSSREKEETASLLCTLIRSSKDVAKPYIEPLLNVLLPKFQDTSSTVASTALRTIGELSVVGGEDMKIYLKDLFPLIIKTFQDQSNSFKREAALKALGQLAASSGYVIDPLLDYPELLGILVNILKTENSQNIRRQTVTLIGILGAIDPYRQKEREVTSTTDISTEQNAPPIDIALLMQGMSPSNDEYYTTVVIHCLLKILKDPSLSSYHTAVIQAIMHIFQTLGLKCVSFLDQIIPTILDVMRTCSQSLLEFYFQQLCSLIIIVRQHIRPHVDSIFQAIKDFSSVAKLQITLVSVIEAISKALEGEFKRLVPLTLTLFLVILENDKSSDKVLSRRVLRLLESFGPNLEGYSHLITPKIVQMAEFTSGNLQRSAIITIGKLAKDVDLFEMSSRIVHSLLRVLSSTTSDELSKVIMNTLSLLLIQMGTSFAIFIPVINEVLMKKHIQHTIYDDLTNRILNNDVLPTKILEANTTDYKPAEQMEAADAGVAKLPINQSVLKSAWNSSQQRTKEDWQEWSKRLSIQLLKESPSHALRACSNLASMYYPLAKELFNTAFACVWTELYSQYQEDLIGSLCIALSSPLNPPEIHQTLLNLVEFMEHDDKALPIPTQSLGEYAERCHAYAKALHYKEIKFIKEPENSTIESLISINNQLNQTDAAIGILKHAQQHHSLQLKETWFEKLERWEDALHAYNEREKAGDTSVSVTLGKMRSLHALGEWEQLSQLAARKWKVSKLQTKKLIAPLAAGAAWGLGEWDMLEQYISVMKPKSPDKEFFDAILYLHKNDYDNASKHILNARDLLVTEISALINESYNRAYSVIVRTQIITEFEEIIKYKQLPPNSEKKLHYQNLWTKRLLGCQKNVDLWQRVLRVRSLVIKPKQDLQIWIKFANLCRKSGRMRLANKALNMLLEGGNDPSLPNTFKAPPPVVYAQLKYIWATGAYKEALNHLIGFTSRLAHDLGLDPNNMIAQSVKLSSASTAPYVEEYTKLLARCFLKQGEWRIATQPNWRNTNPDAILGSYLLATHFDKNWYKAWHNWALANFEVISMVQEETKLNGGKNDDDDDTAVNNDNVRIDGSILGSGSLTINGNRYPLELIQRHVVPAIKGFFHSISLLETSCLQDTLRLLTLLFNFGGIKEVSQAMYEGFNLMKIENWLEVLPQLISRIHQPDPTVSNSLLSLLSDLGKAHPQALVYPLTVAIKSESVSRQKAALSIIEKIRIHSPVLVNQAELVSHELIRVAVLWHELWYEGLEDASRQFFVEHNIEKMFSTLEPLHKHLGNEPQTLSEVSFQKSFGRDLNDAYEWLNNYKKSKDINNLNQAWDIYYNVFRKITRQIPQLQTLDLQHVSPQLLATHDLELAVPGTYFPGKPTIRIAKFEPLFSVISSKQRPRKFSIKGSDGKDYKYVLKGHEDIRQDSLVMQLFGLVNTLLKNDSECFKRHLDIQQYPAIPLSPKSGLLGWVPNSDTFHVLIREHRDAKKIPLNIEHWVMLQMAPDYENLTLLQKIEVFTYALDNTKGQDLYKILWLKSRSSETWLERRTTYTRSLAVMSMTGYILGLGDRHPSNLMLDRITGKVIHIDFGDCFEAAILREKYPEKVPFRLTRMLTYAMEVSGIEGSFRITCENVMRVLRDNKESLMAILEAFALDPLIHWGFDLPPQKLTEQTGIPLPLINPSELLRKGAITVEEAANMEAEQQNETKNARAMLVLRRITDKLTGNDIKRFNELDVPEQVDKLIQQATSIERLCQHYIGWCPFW

B1: Kog1 in the purified TORC1 helix (natural protein)
chain: MPEIYGPQPLKPLNTVMRHGFEEQYQSDQLLQSLANDFIFYFDDKRHKTNGNPIPEEDKQRDVNRYYQPITDWKIMKDRQKTVSAALLLCLNLGVDPPDVMKTHPCARVEAWVDPLNFQDSKKAIEQIGKNLQAQYETLSLRTRYKQSLDPCVEDVKRFCNSLRRTSKEDRILFHYNGHGVPKPTKSGEIWVFNRGYTQYIPVSLYDLQTWLGAPCIFVYDCNSAENILINFQKFVQKRIKDDEEGNHDVAAPSPTSAYQDCFQLASCTSDELLLMSPELPADLFSCCLTCPIEISIRIFLMQSPLKDSKYKIFFENSTSNQPFGDSKNSFKSKIPNVNIPGMLSDRRTPLGELNWIFTAITDTIAWTSLPRPLFKKLFRHDLMIAALFRNFLLAKRIMPWYNCHPVSDPELPDSITTHPMWKSWDLAMDEVLTKIVIDLKNAPPATALESQMILQQQETLQNGGSSKSNAQDTKAGSIQTQSRFAVANLSTMSLVNNPALQSRKSISLQSSQQQLQQQQQQQQQFTGFFEQNLTAFELWLKYASNVRHPPEQLPIVLQVLLSQVHRIRALVLLSRFLDLGPWAVYLSLSIGIFPYVLKLLQSPAPELKPILVFIWARIMSIDYKNTQSELIKEKGYMYFVTVLVPDWGVNGMSATNGSAMINSGNPLTMTASQNINGPSSRYYERQQGNRTSNLGHNNLPFYHSNDTTDEQKAMAVFVLASFVRNFPLGQKNCFSLELVNKLCFYIDNSEIPLLRQWCVILLGLLFADNPLNRFVCMNTGAVEILLKSLKDPVPEVRTASIFALKHFISGFQDAEVILRLQQEFEEQYQQLHSQLQHLQNQSHLQQQQSQQQQQHLEQQQMKIEKQIRHCQVMQNQLEVIDLRKLKRQEIGNLISILPLINDGSSLVRKELVVYFSHIVSRYSNFFIVVVFNDLLEEIKLLEKSDINTRNTSDKYSVSQGSIFYTVWKSLLILAEDPFLENKELSKQVIDYILLELSAHKELGGPFAVMEKFLLKRSSKAHQTGKFGFNSSQVQFVKSSLRSFSPNERVDNNAFKKEQQQHDPKISHPMRTSLAKLFQSLGFSESNSDSDTQSSNTSMKSHTSKKGPSGLYLLNGNNNIYPTAETPRFRKHTEPLQLPLNSSFLDYSREYFQEPQMKKQEADEPGSVEYNARLWRRNRNETIIQETQGEKKLSIYGNWSKKLISLNNKSQPKLMKFAQFEDQLITADDRSTITVFDWEKGKTLSKFSNGTPFGTKVTDLKLINEDDSALLLTGSSDGVIKIYRDYQDVDTFKIVSAWRGLTDMLLTPRSTGLLTEWLQIRGSLLTTGDVKVIRVWDAHTETVEVDIPAKTSSLITSLTADQLAGNIFVAGFADGSLRVYDRRLDPRDSMIRRWRAGNDKQGVWINNVHLQRGGYRELVSGATNGVVELWDIRSEDPVESFVDQNVTSQYGSQQKPTTMTCMQVHEHAPIIATGTKQIKIWTTSGDLLNSFKNSHNNGVTSTLAATGIPKSLSYSSTSDAFLSSMAFHPHRMMIAATNSHDSIVNIYKCEDERIDYF
binding result (Tor1): binds | binding result (cryo-EM structure): binds
